Source: paper PMC3954793, “SHP-2 Binds to Caveolin-1 and Regulates Src Activity via Competitive Inhibition of CSK in Response to H2O2 in Astrocytes” (PLoS ONE, 2014)

Columns and labels:
CSK = CSK (UniProt P41240); test: PepSPOT peptide array overlay; conditions: reference: nonphosphorylated 13-mer peptides; sites Y14
SHP-2 = SHP-2 (UniProt Q06124); test: PepSPOT peptide array overlay; conditions: reference: nonphosphorylated 13-mer peptides; sites Y14

Substance: caveolin-1 13-mers within 1-28 (from UniProt Q03135) pY14 13-mer peptides
- binding against the reference (CSK): stronger
- binding against the reference (SHP-2): stronger
